Test results reported in PMC3210727 (Science (New York, N.Y.), 2011).

Columns and labels:
Experiment in all cases: flow cytometry on cells
[1] = target: surface-expressed H7 HA, uncleaved (HA0) (Influenza A virus H7, strain not named; …, UniProt Q6VMK1)
[2] = target: surface-expressed H3 HA from A/Hong Kong/1/1968, cleaved (HA) (Influenza A virus (strain A/Hong …, UniProt Q91MA7))
[3] = target: surface-expressed H3 HA from A/Hong Kong/24/1985, cleaved (HA) (Influenza A virus A/Hong Kong/24/1985 …, UniProt Q38TK5, strain)
[4] = target: surface-expressed H3 HA from A/Hong Kong/1/1968, uncleaved precursor (HA0) (Influenza A virus (strain A/Hong …, UniProt Q91MA7))
[5] = target: surface-expressed H7 HA, cleaved (HA) (Influenza A virus H7, strain not named; …, UniProt Q6VMK1)

Measured: binding result

B1: human monoclonal antibody CR8020 (antibody, V domains shown)
VH: QVQLQQSGAEVKTPGASVKVSCKASGYTFTSFGVSWIRQAPGQGLEWIGWISAYNGDTYYAQKFQARVTMTTDTSTTTAYMEMRSLRSDDTAVYYCAREPPLFYSSWSLDNWGQGTLVTVSS
VL: EIVMTQSPGTLSLSPGERATLSCRASQSVSMNYLAWFQQKPGQAPRLLIYGASRRATGIPDRISGSGSGTDFTLTISRLEPADFAVYYCQQYGTSPRTFGQGAKVEIK
binds: all assays above
